Consider three molecules from publication PMC3925836 (Advanced healthcare materials, 2013).

The series “dynamic light scattering” deals with the molecule itself. Briefly: dynamic light scattering.
In a further series the target is T1, GPSP-P40-I60.
T1 chain: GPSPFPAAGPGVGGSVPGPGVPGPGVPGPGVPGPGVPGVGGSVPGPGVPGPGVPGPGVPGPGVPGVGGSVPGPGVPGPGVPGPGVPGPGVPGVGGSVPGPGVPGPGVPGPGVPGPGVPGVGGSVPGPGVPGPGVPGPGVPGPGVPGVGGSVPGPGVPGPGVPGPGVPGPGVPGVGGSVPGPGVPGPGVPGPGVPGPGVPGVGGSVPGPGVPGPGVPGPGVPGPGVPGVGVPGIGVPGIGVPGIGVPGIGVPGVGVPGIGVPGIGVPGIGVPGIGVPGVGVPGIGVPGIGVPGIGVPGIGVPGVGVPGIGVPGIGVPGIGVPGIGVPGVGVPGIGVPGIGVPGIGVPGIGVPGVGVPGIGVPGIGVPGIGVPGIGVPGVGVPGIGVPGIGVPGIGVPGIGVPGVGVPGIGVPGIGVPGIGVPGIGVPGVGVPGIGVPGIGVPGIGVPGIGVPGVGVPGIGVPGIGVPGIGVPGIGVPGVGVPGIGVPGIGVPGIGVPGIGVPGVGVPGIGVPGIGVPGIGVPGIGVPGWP
Nature of the series: SYPRO Orange thermal transition assay.

Positions count from the first letter of the chain named.

B1: GPRP-P40-I60 (designed binder)
chain: T1 chain with S3R
Turning to B1, the binding result in “dynamic light scattering” is “binds”.

B2: GPRP-A80-I60 (designed binder)
chain: GPRPFPAAGPGVGVPGAGVPGAGVPGAGVPGAGVPGVGVPGAGVPGAGVPGAGVPGAGVPGVGVPGAGVPGAGVPGAGVPGAGVPGVGVPGAGVPGAGVPGAGVPGAGVPGVGVPGAGVPGAGVPGAGVPGAGVPGVGVPGAGVPGAGVPGAGVPGAGVPGVGVPGAGVPGAGVPGAGVPGAGVPGVGVPGAGVPGAGVPGAGVPGAGVPGVGVPGAGVPGAGVPGAGVPGAGVPGVGVPGAGVPGAGVPGAGVPGAGVPGVGVPGAGVPGAGVPGAGVPGAGVPGVGVPGAGVPGAGVPGAGVPGAGVPGVGVPGAGVPGAGVPGAGVPGAGVPGVGVPGAGVPGAGVPGAGVPGAGVPGVGVPGAGVPGAGVPGAGVPGAGVPGVGVPGAGVPGAGVPGAGVPGAGVPGVGVPGIGVPGIGVPGIGVPGIGVPGVGVPGIGVPGIGVPGIGVPGIGVPGVGVPGIGVPGIGVPGIGVPGIGVPGVGVPGIGVPGIGVPGIGVPGIGVPGVGVPGIGVPGIGVPGIGVPGIGVPGVGVPGIGVPGIGVPGIGVPGIGVPGVGVPGIGVPGIGVPGIGVPGIGVPGVGVPGIGVPGIGVPGIGVPGIGVPGVGVPGIGVPGIGVPGIGVPGIGVPGVGVPGIGVPGIGVPGIGVPGIGVPGVGVPGIGVPGIGVPGIGVPGIGVPGVGVPGIGVPGIGVPGIGVPGIGVPGWP
For the molecule B2, the binding result with GPSP-P40-I60 was “binds”.

B3: GPSP-A80-I60 (designed binder)
chain: B2 chain with R3S
Consider B3, for which the binding result with GPSP-P40-I60 and in “dynamic light scattering” was “binds” each time.
